Data on one substance can be found in patent US20150160214A1, “Quantitation of Cellular Adhesion Dynamics Across Immobilized Receptors Under Rheological Shear Flow” (Mayo Foundation for Medical Education and Research, priority 2013, published 2015).

Data set [1] is described as follows: Acrylamide quenching of tryptophan fluorescence (Stern-Volmer). The data set is classed as physicochemical. As to the method: This was also confirmed via acrylamide induced tryotophan fluorescence quenching performed with an excitation wavelength of 295 nm.
Initially a quenching determination was performed with disulfide-intact A1 at 20° Celsius and at 1° Celsius in order to distinguish between static and collisional quenching. […] Clear evidence for collisional quenching could be obtained for the A1-domain since the Stern-Volmer constant decreased from 2.6±0.03 to 2.2±0.03 M−1, FIG. 16A, ruling out a static quenching mechanism.
Acrylamide quenching of tryptophan was performed using an excitation wavelength of 295 nm. After the addition of a certain amount of buffered acrylamide solution the protein solution was equilibrated for ˜5 min and then a fluorescence spectrum between 320 and 400 nm was recorded. Stern-Volmer constants were determined from the fluorescence intensity at 359 nm using the Stern-Volmer equation as described by Lakowicz (Lakowicz:2006)
where KD is the Stern-Volmer quenching constant and KD-1 is the concentration of acrylamide at which F0/F=2 and 50% of the fluorescence intensity is quenched.

A further data set deals with platelet GP1bα. Description: Platelet pause times and translocation velocities on immobilized A1 under shear flow, parallel-plate flow chamber (Example 1). The data set is classed as cell-based, human. The following applies: as a function of shear rate. An excerpt: To understand the effect of the N-terminal peptide on the function of the A1-domain of vWF, the protein was expressed with (A1-1238) and without the N-terminal peptide (A1-1261). The inventor used a flow chamber to measure the dynamics of platelet interactions with A1-1238 and A1-1261. Each domain variant was immobilized on glass slides with a modified Cu^2+ chelating chemistry that enabled surface capture via the N-terminally fused histidine tag. This method ensured reproducible capture of the proteins eliminating possible structural issues associated with nonspecific immobilization on plastic or glass. The slides were completely inert to platelets. Next, 1 mL of citrated whole blood followed by Tris buffered saline was perfused at low shear to enable platelets to attach to the surface immobilized domains. After red cells were perfused away with buffer, the translocation of the remaining attached platelets over the surfaces was recorded at each shear rate and the velocities and pause times calculated from the coordinate data of each platelet on the surface as described in the methods. […] In addition, the translocation velocities were increased for A1-1238 relative to A1-1261. To determine if this N-terminal sequence could inhibit the catch bond when free in solution, the inventor incubated surface immobilized A1-1261 with excess free peptide and added the free peptide to 1 mL of whole blood and to our perfusion buffer and performed the assay.
Determination of platelet pause times. Determination of platelet pause times A Glycotech† rectangular parallel-plate flow chamber was mounted to slides with a chelated Cu 21 surface obtained from Microsurfaces Inc. # to which the A1-1261 and A1-1238 domains in TBS were immobilized by the 63His-Tag. Citrated whole blood (1 mL) obtained from informed consent of healthy donors with approval from the Baylor College of Medicine institutional review board followed by buffer was perfused through the chamber at 300s21 for A1-1261 and 700s21 for A1-1238 shear rate to attach platelets to the surface immobilized proteins using a syringe driven variable flow rate pump. The shear was increased incrementally and 1 min movies were recorded at 25 frames/s in phase contrast with 232 pixel binning on a Zeiss Axiocam MRm camera attached to a Zeiss Axio Observer D1 inverted microscope. Tracking analysis was performed using Mediacybernetics ImagePro Premier§. The resulting X-Y coordinate data for each platelet track was differentiated into instantaneous velocities using a Savitzky-Golay algorithm (Savitzky:1964) with a five data point window size and a second-order polynomial implemented into a Mathamatica notebook. These platelet tracks were retained for statistical analysis if the platelet was present for at least 1 s and travelled a total distance greater than 1 lm. Distance travelled in pixels was converted to lm given the camera pixel size=6.45 μm^2, pixel binning, and microscope magnification=400×. Pause times were determined by the amount of time (seconds) a platelets velocity was =0±0.13 μm/s, within the noise. Pause times for all platelet tracks are reported as the mean of the medians. Examples of this analysis for individual platelets and for multiple platelets are provided in the Supporting Information.
Frame by frame platelet trajectory analysis. Tracking coordinates of individual platelets in units of pixels were exported from ImagePro Premier as a text file and imported into a Mathematica notebook that calculates a Savitzky-Golay first derivative of the total distance traveled over time (Savitzky:1964). The distance was calculated from the X and Y coordinates with the following equation.
Pause times were determined from the length of time the platelet velocity remained within 0±4 pixel/sec=0.129 μm/sec as illustrated in FIG. 8B. Median pause times were calculated from velocity time profiles for all platelet tracks, stored in a list and translated to histograms for multiple platelets. […]

As to “A1-1238: Recombinant human vWF A1 domain, amino acids Q1238-P1471, with N-terminal 6×His-Tag, disulfide intact”, the Stern-Volmer constant in data set [1] (2 M GdnHCl) amounted to 6.0 ± 0.1 M⁻¹; in data set [1] (buffer, 1° Celsius), 2.2 ± 0.03 M⁻¹; in data set [1] (buffer, 20° Celsius), 2.6 ± 0.03 M⁻¹. Moreover, the “Platelet translocation velocities on immobilized domain (comparison)” value in the data set with platelet GP1bα was “increased”.
